Assay results taken from US9821050.

Target: DENV2 (S-16803) intact virus, E glycoprotein on the virion (dengue virus serotype 2 (S-16803))
Assay: cell-based or functional assay

human monoclonal antibody 2D22
Neut50 value: < 0.2 µg/mL
